Columns and labels:
[1] = target: human Trop-2 on cells (human) (UniProt P09758); test: cell binding on NCI-N87, anti-mouse-HRP, luminescence
[2] = target: human Trop-2 on cells (human) (UniProt P09758); test: cell-based or functional assay
[3] = target: recombinant human neonatal receptor (FcRn) (human) (UniProt P55899); test: SPR (BIACORE), FcRn on low-density chip, three runs at 400 to 25 nM
[4] = target: recombinant human neonatal receptor (FcRn) (human) (UniProt P55899); test: SPR (BIACORE), FcRn on chip
[5] = target: human Trop-2 on cells (human) (UniProt P09758); test: cell binding assay; cell line not stated
[6] = target: rhTrop-2/TACSTD2 (Sino Biological, Inc.) (human) (UniProt P09758); test: SPR (BIACORE), Trop-2 on chip
[7] = target: rhTrop-2/TACSTD2 (Sino Biological, Inc.) (human) (UniProt P09758); test: SPR (BIACORE), recombinant human Trop-2 on low-density CM5 chip, 1:1 model, three runs
[8] = target: Recombinant human Trop-2 with a His-tag (Sino Biological, Cat#10428-H09H) (human) (UniProt P09758); test: ELISA on His-tagged recombinant human Trop-2 captured on Ni-NTA strips
Chain of Recombinant human Trop-2 with a His-tag (Sino Biological, Cat#10428-H09H) (human) (P09758 27-274 limits assumed): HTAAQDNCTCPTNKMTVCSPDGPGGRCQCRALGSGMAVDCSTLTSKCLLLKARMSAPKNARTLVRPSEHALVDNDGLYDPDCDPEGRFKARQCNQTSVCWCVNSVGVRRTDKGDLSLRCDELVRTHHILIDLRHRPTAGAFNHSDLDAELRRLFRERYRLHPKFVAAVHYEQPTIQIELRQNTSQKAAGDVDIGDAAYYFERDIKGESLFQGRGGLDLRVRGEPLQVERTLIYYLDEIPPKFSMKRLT

Chain of human Trop-2 on cells (human) (P09758 27-323): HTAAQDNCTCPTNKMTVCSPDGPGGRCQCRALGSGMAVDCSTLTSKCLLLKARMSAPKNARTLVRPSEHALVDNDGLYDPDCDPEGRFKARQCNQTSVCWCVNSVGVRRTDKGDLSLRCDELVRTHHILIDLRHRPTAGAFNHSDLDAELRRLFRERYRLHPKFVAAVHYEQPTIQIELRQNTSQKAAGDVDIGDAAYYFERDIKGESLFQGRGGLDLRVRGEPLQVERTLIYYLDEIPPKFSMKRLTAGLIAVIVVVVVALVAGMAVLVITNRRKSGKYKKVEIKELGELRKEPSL
Chain of recombinant human neonatal receptor (FcRn) (human) (P55899 24-297 limits assumed, chain 1 of 2): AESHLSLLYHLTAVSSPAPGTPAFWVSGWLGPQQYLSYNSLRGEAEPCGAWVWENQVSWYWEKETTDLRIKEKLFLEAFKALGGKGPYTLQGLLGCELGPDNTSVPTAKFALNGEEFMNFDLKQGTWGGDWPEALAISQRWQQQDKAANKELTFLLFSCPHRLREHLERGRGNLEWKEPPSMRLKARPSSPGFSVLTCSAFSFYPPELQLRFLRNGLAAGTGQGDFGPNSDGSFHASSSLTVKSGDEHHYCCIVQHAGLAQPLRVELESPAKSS
Chain of recombinant human neonatal receptor (FcRn) (human) (P61769 21-119 limits assumed, chain 2 of 2, further chain): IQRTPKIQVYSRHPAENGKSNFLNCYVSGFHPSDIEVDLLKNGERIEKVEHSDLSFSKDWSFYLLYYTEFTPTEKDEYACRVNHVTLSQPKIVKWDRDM
Chain of rhTrop-2/TACSTD2 (Sino Biological, Inc.) (human) (P09758 27-274 limits assumed): as the sequence (P09758 27-274 limits assumed) above

In the case of “162-46.2 murine anti-Trop-2 monoclonal antibody”, the BMax (relative luminescent units) [1] is reported as 8470, the Kd [1] is reported as 0.52 nM and the reduction of maximum binding (Bmax) compared to RS7 [1] is reported as 25%.

“MAB650 murine anti-Trop-2 monoclonal antibody (R&D Systems)” showed a BMax (relative luminescent units) [1] of 6020, a Kd [1] of 0.49 nM and a reduction of maximum binding (Bmax) compared to RS7 [1] of 50%.

Substance “Sacituzumab govitecan (IMMU-132, also known as hRS7-CL2A-SN-38) (antibody)” has an ADCC, specific lysis of MDA-MB-468 by PBMCs (E:T 50:1, 33.3 nM) [2] of 8.6%, a Median fluorescence intensity of phospho-H2AX staining (dsDNA breaks), HCC1806 (Trop-2+), after 30 min at 4° C., wash and overnight culture [2] of 546 MFI and a γH2AX induction in BxPC-3, Mean Fluorescence Intensity [2] of 5350 MFI. It also gave a γH2AX induction in BxPC-3, Percent Positive [2] of 69%, a Kd [3] of 192 nM and a fold lower average binding level than hRS7 [4] of 2 fold. It also gave a Kd [5] of 1.2 nM, a fold improvement in KD compared to naked hRS7 [6] of 2 fold and a Kd [7] of 0.26 nM.

“hA20 anti-CD20-SN38 conjugate (antibody)” was tested, and the γH2AX induction in BxPC-3, Mean Fluorescence Intensity [2] was 2250 MFI and the γH2AX induction in BxPC-3, Percent Positive [2] was 12.7%.

Work on “humanized RS7 (hRS7) anti-Trop-2 antibody” yielded an ADCC, specific lysis of BxPC-3 by PBMCs (E:T 100:1, 33.3 nM) [2] of 8.5%, an ADCC, specific lysis of MDA-MB-468 by PBMCs (E:T 50:1, 33.3 nM) [2] of 29.8% and a Kd [3] of 92.4 nM. The Kd [8] was 0.3 nM and the Kd [7] was 0.51 nM.

Source: US20160193357A1
